Experimental data as given in patent publication US20240216430A1 (ALLOGENE THERAPEUTICS, published 2024).

T1: msCLDN18.1
T1 chain: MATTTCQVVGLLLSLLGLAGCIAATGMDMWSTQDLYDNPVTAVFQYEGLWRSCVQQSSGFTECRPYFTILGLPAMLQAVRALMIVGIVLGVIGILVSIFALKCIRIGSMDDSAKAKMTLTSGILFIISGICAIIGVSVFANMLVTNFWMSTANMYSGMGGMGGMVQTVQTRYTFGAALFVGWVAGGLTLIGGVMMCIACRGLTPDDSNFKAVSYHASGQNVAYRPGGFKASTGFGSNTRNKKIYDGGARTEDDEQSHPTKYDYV


Biological target: T1, msCLDN18.1
Assay: flow cytometry on HEK-293T overexpressing mouse Claudin 18.1; 5 µg/mL scFv-hIgG2Fc, detected with PE anti-human IgG Fcγ
Description: The stained samples were analyzed by flow cytometry.

Binder	binding result
anti-Claudin 18.2 scFv-hIgG2Fc, clone 9G2 (Fc fusion, linker and orientation in the Fc fusion are not restated; not shown: human IgG2 Fc (hIgG2Fc)) EVHLLESGGGLVQPWGSLTLSCAASGFTFSNYAMNWVRQAPGKGLEWVSGISGSGGSTYDADSVKGRFTISRDNSKNTLFLQMNSPRAEDTAVYYCATQGYSFGYFESWGQGTLVTVSSGGGGSGGGGSGGGGSGGGGSEIVLTQSPATLSLSPGERATLSCRASQNVNRYLAWYHQKPGQAPRLLIYDAFNRATGIPARFSGSGSGTDFTLTINSLEPEDFAVYYCQQRSDWPLTFGGGTKLEIK	binds
anti-Claudin 18.2 scFv-hIgG2Fc, clone 12H6 (Fc fusion, linker and orientation in the Fc fusion are not restated; not shown: human IgG2 Fc (hIgG2Fc)) EVQLVESGGGLVQPGGSLRLSCAASGFTFSRYWMSWVRQAPGKGLEWVANIKHDGSEKYYVDSVKGRFTFSRDNAKTSLYLQMNSLRVEDTALYYCARYYGGPFDYWGQGTLVTVSSGGGGSGGGGSGGGGSGGGGSEIVLTQSPGTLSLSPGERATLSCRASQSVRSSYLAWYQQKPGQAPRLLIFGASSRATGIPDRFSGSGSGTDFTLTISRLEPEDFAVYYCQQFGSSLTFGGGTKVEIK	binds
anti-Claudin 18.2 scFv-hIgG2Fc, clone 2A10 (Fc fusion, linker and orientation in the Fc fusion are not restated; not shown: human IgG2 Fc (hIgG2Fc)) QVQLQESGPGLVKPSETLSLTCTVSAGSISSYYWNWIRQPAGKGLEWIGRIYTSGSTNYNPSLRSRVTMSVDTSKNQFSLKLSSVTATDTAVYYCASASYTYFDSFDIWGQGTMVTVSSGGGGSGGGGSGGGGSGGGGSDIQLTQSPSFLSASVGDRVTITCRASQDIRNFLAWYQQKPGKAPKLLIYAASTLQSGVPSRFSGSGSGTEFALTVSSLQPEDFATYYCQQVNSYPRTFGQGTKVEIK	binds
